# Columns and labels:
# PCSK9 [1] = molecular target: T1, PCSK9 (Homo sapiens, UniProt Q8NBP7); assay: Example 2 clinical study, single escalating IV doses: fasting lipids; type: in vivo
# T1 construct: PCSK9 antagonist antibody that antagonizes circulating PCSK9; endogenous in cells; host or cells: human subjects in clinical trials (in vivo, circulating PCSK9)
# Procedure: The study entailed a randomized, placebo-controlled, ascending, single dose study of L1L3. The subjects, investigator, and site personnel (except site personnel responsible for drug preparation) were blinded to treatment assignments, as was the CRO designee; while the Sponsor clinical research team was unblinded. The study was conducted in 6 planned cohorts of 8 subjects per cohort in an effort to seek a maximum tolerated dose or MTD (total of approximately 48 subjects). […] Doses were administered following an overnight fast as an intravenous infusion over 60 minutes. […] Infusions will be administered as a single infusion over 60 minutes.
# Change in serum lipids (total cholesterol, LDL, HDL, Triglycerides, Non-HDL-C and Apoprotein B) were assessed.
# Collection of fasting lipid profile was performed after at least a 10-hour fast (total cholesterol, LDL, HDL, Non-HDL Cholesterol, Apo B and triglycerides).
# PCSK9 [2] = molecular target: T1, PCSK9; assay: Example 6 clinical study, IV doses every 4 weeks on stable statin: lipids; type: in vivo; conditions: for LDL-C lowering, % below baseline: by Day 29 (FIG. 15)
# Procedure: This study was a randomized, multi center, double blind, placebo control, parallel designed trial with a 3 week screening period, 12 week treatment period and 8 week follow up period.
# Subjects enrolled in the study met all of the following criteria: men and women subjects greater than equal to age of 18; body mass index of 18.5 to 40 kg/m^2; total body weight greater than 50 kg (110 lbs) and less than 150 kg (330 lbs); on a stable daily dose of a statin, defined as atorvastatin 40 or 80 mg, rosuvastatin 20 or 40 mg or simvastatin 40 or 80 mg for a minimum of 45 days prior to Day 1; lipids meet the following criteria at two qualifying visits (screening and Day −7): fasting LDL-C greater than or equal to 100 mg/dL, ;
# The pre-specified primary efficacy endpoint was the percentage change from baseline of LDL-C at Day 85 analyzed using an ANCOVA model. The final ANCOVA model contained terms for baseline LDL-C and treatment. To preserve the overall type I error rate at a level of 0.05 for the primary endpoint analysis, a Haybittle-Peto, boundary with 0.001 alpha spent was employed.
# The LDL-C data were subsequently analyzed using mixed model repeated measures to estimate both the treatment by time and empirical dose-response profiles.
# [3] = IV every 4 weeks, stable daily statin
# T1 sequence (Q8NBP7 153-692): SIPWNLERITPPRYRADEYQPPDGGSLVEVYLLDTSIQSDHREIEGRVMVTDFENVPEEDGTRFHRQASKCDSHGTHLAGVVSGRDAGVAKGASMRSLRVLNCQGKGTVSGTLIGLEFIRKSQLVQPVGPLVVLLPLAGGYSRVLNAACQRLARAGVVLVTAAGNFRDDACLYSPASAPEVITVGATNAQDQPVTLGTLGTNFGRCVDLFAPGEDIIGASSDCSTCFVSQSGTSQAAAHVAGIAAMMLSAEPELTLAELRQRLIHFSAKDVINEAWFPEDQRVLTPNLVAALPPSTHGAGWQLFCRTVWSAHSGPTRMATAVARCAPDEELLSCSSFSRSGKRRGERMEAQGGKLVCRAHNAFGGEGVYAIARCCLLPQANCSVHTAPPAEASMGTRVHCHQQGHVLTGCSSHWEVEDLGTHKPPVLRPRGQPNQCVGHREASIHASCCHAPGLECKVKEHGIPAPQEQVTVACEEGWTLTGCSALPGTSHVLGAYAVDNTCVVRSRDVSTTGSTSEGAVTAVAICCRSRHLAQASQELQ
# T1 sequence (Q8NBP7 31-152 partner limits assumed): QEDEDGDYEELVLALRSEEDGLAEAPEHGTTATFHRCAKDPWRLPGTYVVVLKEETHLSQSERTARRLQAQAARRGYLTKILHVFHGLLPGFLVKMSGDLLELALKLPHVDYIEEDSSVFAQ
molecule,measurement,setting,value
"L1L3: humanized (<5% murine residues) monoclonal PCSK9 antagonist antibody that binds to secreted PCSK9; VH SEQ ID NO: 11, VL SEQ ID NO: 12 (antibody, V domains shown, heavy chain variable region; light chain variable region) VH: QVQLVQSGAEVKKPGASVKVSCKASGYTFTSYYMHWVRQAPGQGLEWMGEISPFGGRTNYNEKFKSRVTMTRDTSTSTVYMELSSLRSEDTAVYYCARERPLYASDLWGQGTTVTVSS VL: DIQMTQSPSSLSASVGDRVTITCRASQGISSALAWYQQKPGKAPKLLIYSASYRYTGVPSRFSGSGSGTDFTFTISSLQPEDIATYYCQQRYSLWRTFGQGTKLEIK",mean percentage change from baseline of fasting LDL-C,"PCSK9 [1]; single IV 1 mg/kg, visit day 22",−22.40%
same,mean percentage change from baseline of fasting LDL-C,"PCSK9 [1]; single IV 1 mg/kg, visit day 29",−3.36%
same,mean percentage change from baseline of fasting LDL-C,"PCSK9 [1]; single IV 3 mg/kg, visit day 1",0.000%
same,mean percentage change from baseline of fasting LDL-C,"PCSK9 [1]; single IV 3 mg/kg, visit day 2",−1.97%
same,mean percentage change from baseline of fasting LDL-C,"PCSK9 [1]; single IV 3 mg/kg, visit day 3",−13.20%
same,mean percentage change from baseline of fasting LDL-C,"PCSK9 [1]; single IV 3 mg/kg, visit day 4",−19.10%
same,mean percentage change from baseline of fasting LDL-C,"PCSK9 [1]; single IV 3 mg/kg, visit day 8",−39.78%
same,mean percentage change from baseline of fasting LDL-C,"PCSK9 [1]; single IV 3 mg/kg, visit day 15",−57.93%
same,mean percentage change from baseline of fasting LDL-C,"PCSK9 [1]; single IV 3 mg/kg, visit day 22",−65.09%
same,mean percentage change from baseline of fasting LDL-C,"PCSK9 [1]; single IV 3 mg/kg, visit day 29",−64.77%
same,mean percentage change from baseline of fasting LDL-C,"PCSK9 [1]; single IV 3 mg/kg, visit day 43",−27.56%
same,mean percentage change from baseline of fasting LDL-C,"PCSK9 [1]; single IV 6 mg/kg, visit day 1",0.000%
same,mean percentage change from baseline of fasting LDL-C,"PCSK9 [1]; single IV 6 mg/kg, visit day 2",−1.44%
same,mean percentage change from baseline of fasting LDL-C,"PCSK9 [1]; single IV 6 mg/kg, visit day 3",−9.23%
same,mean percentage change from baseline of fasting LDL-C,"PCSK9 [1]; single IV 6 mg/kg, visit day 4",−18.80%
same,mean percentage change from baseline of fasting LDL-C,"PCSK9 [1]; single IV 6 mg/kg, visit day 8",−43.77%
same,mean percentage change from baseline of fasting LDL-C,"PCSK9 [1]; single IV 6 mg/kg, visit day 15",−61.52%
same,mean percentage change from baseline of fasting LDL-C,"PCSK9 [1]; single IV 6 mg/kg, visit day 22",−68.92%
same,mean percentage change from baseline of fasting LDL-C,"PCSK9 [1]; single IV 6 mg/kg, visit day 29",−64.19%
same,mean percentage change from baseline of fasting LDL-C,"PCSK9 [1]; single IV 6 mg/kg, visit day 36",−67.70%
same,mean percentage change from baseline of fasting LDL-C,"PCSK9 [1]; single IV 6 mg/kg, visit day 43",−64.18%
same,mean percentage change from baseline of fasting LDL-C,"PCSK9 [1]; single IV 6 mg/kg, visit day 50",−49.17%
same,mean percentage change from baseline of fasting LDL-C,"PCSK9 [1]; single IV 6 mg/kg, visit day 57",−36.12%
same,mean percentage change from baseline of fasting LDL-C,"PCSK9 [1]; single IV 12 mg/kg, visit day 1",0.000%
same,mean percentage change from baseline of fasting LDL-C,"PCSK9 [1]; single IV 12 mg/kg, visit day 2",−8.26%
same,mean percentage change from baseline of fasting LDL-C,"PCSK9 [1]; single IV 12 mg/kg, visit day 3",−14.05%
same,mean percentage change from baseline of fasting LDL-C,"PCSK9 [1]; single IV 12 mg/kg, visit day 4",−23.23%
same,mean percentage change from baseline of fasting LDL-C,"PCSK9 [1]; single IV 12 mg/kg, visit day 8",−37.96%
same,mean percentage change from baseline of fasting LDL-C,"PCSK9 [1]; single IV 12 mg/kg, visit day 15",−66.25%
same,mean percentage change from baseline of fasting LDL-C,"PCSK9 [1]; single IV 12 mg/kg, visit day 22",−59.79%
same,mean percentage change from baseline of fasting LDL-C,"PCSK9 [1]; single IV 12 mg/kg, visit day 29",−74.67%
same,mean percentage change from baseline of fasting LDL-C,"PCSK9 [1]; single IV 12 mg/kg, visit day 36",−65.23%
same,mean percentage change from baseline of fasting LDL-C,"PCSK9 [1]; single IV 12 mg/kg, visit day 43",−69.31%
same,mean percentage change from baseline of fasting LDL-C,"PCSK9 [1]; single IV 12 mg/kg, visit day 50",−56.08%
same,mean percentage change from baseline of fasting LDL-C,"PCSK9 [1]; single IV 12 mg/kg, visit day 57",−63.10%
same,mean percentage change from baseline of fasting LDL-C,"PCSK9 [1]; single IV 18 mg/kg, visit day 1",0.000%
same,mean percentage change from baseline of fasting LDL-C,"PCSK9 [1]; single IV 18 mg/kg, visit day 2",−11.52%
same,mean percentage change from baseline of fasting LDL-C,"PCSK9 [1]; single IV 18 mg/kg, visit day 3",−22.43%
same,mean percentage change from baseline of fasting LDL-C,"PCSK9 [1]; single IV 18 mg/kg, visit day 4",−34.36%
same,mean percentage change from baseline of fasting LDL-C,"PCSK9 [1]; single IV 18 mg/kg, visit day 8",−43.70%
same,mean percentage change from baseline of fasting LDL-C,"PCSK9 [1]; single IV 18 mg/kg, visit day 15",−82.89%
same,mean percentage change from baseline of fasting LDL-C,"PCSK9 [1]; single IV 18 mg/kg, visit day 22",−72.97%
same,mean percentage change from baseline of fasting LDL-C,"PCSK9 [1]; single IV 18 mg/kg, visit day 29",−67.40%
same,mean percentage change from baseline of fasting LDL-C,"PCSK9 [1]; single IV 18 mg/kg, visit day 36",−61.47%
same,mean percentage change from baseline of fasting LDL-C,"PCSK9 [1]; single IV 18 mg/kg, visit day 43",−80.21%
same,Fasting triglyceride (TGs) levels,"PCSK9 [1]; single IV 0.3-18 mg/kg, baseline 173 mg/dL",remained unchanged
same,High density lipoprotein cholesterol (HDL-C) levels,"PCSK9 [1]; single IV 0.3-18 mg/kg, baseline about 49 mg/dL",did not change significantly
same,LDL-C lowering,"PCSK9 [2]; 3 mg/kg and 6 mg/kg dosing regimens, persisted for 28 days (FIG. 16)",greater than 30%
same,"LDL-C lowering, % below baseline","PCSK9 [2]; 3 mg/kg dosing regimen, stable daily statin",about 50%
same,"LDL-C lowering, % below baseline","PCSK9 [2]; 6 mg/kg dosing regimen, stable daily statin",about 65%
same,Effect on triglycerides,PCSK9 [2]; [3],No effect
same,Elevation of HDL,PCSK9 [2]; [3],up to 9%
same,Difference in LS means (Test-Reference) of percentage changes from baseline for LDL-C,"PCSK9 [2]; L1L3 0.25 mg/kg vs. Placebo on Day 85, MMRM",2.67
same,Difference in LS means (Test-Reference) of percentage changes from baseline for LDL-C,"PCSK9 [2]; L1L3 1 mg/kg vs. Placebo on Day 85, MMRM",0.83
same,Difference in LS means (Test-Reference) of percentage changes from baseline for LDL-C,"PCSK9 [2]; L1L3 3 mg/kg vs. Placebo on Day 85, MMRM",−38.92
same,Difference in LS means (Test-Reference) of percentage changes from baseline for LDL-C,"PCSK9 [2]; L1L3 6 mg/kg vs. Placebo on Day 85, MMRM",−50.14
